From the RNAGym collection of RNA variant scans (doi:10.1073/pnas.2313332121)

B1: TPR t1 (parent)
chain: GACCAAUCUGCCCUCAGAGCUCGAGAACAUCUUCGGAUGCAGAGGAGGCAGGCUUCGGUGGCGCGAUAGCGCCAACGUCCUCAACCUCCAAUGCAUCCCACCACAUGAUGAUGCCUGAAGAGCCUUGGUUUUUUG

Variants of: B1
Assay: polymerase ribozyme fitness, log enrichment relative to wild type (log ratio); higher = more active; in vitro selection for triplet polymerase activity
Method in brief: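 Each subunit of a heterodimeric triplet polymerase ribozyme was mutagenized into a library by PCR, transcribed, and subjected to one round of in vitro selection, run in triplicate. Libraries were annealed with a biotinylated primer, the partner subunit and triplets, incubated frozen at −7 °C, and extended constructs were gel-excised, captured on streptavidin beads and recovered by RT-PCR. Input and output libraries were sequenced on Illumina, keeping genotypes with ≥10 input reads and ≥1 read per output. Fitness is log base 2 of genotype enrichment divided by wild-type enrichment, from inverse-variance-weighted replicate averages.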

In order of rising “polymerase ribozyme fitness (log ratio)” value:
1. C13U G19C C40U C72U C98A G110U  -8.2
2. A43C G69A C94G  -7.62
3. A26U G51A U54A G69C G117C  -7.56
4. U32G G57A C123U  -7.55
5. A27G C64A C115G  -7.5
6. C11G U33C G63A C99U A111C  -7.29
7. G10A U59C G61A A83G C114G C115U  -7.23
8. G44C G63A C85U G110C  -7.22
9. C8A G35C G63A C98A  -6.69
10. A2U C56A G63U U106A C115G  -6.59
11. C40A G71U G110C C114A  -6.53
12. G44U G47U C72A U81G G117C  -6.49
13. C12A U55G G57A U109A G117U U132C U134G  -6.47
14. C4G C62A C99A G113U  -6.39
15. G52C G69C G117C  -6.05
16. C40G G48A C64U C104A U109A C114A U130A  -5.98
17. C49G A68G G117U  -5.87
18. U21G C88A C97A A121C  -5.55
19. C4U C49A G60C C80A C115A  -5.4
20. G47U G69C A105U  -5.38
21. C34U U96A  -5.35
22. C4A U14A  -5.35
23. C12U G57A G63A G113C  -5.3
24. A2U C40A G61U C73A U92A C104U  -5.16
25. U7A G10A C28G C73A U109A A119G C123G  -5.03
26. C22A G60A U96A U130C  -4.99
27. C56U C104G C115A  -4.93
28. A2G C11G G42A C89G  -4.87
29. U14G A75U C94U U109C G127C U133G  -4.46
30. C34A C70U G120C  -4.45
31. C8A U87A G107C  -4.36
32. G69U G107C  -4.24
33. G42C G128U U130A G135U  -4.23
34. C20G U32G A90U G93U U109C  -4.13
35. C53A C64U C99U U133G  -4.1
36. C40U G61C U126G  -4.04
37. C12U C72A C85A C94G A111C A119G U125A U133G  -4.02
38. A66U C79G  -4.01
39. C53A C73A U116A  -3.87
40. G17A C89U  -3.72
41. C15A G113A  -3.63
42. C86U G117C  -3.53
43. A29G A37G G63A C88U A111C  -3.49
44. A26U C88A  -3.45
45. C62U C80A A84C  -3.26
46. C72G A83U A90G C114G  -3.25
47. G19U A43U  -3.24
48. U21G U87G U133G  -3.13
49. G77A C101A G117A  -3.06
50. A5C C12A U96C G128C  -2.92
51. U81C C89A A111G  -2.87
52. C12U A50U U59G G63A A119U  -2.52
53. C12G C34A C62U  -2.32
54. U21A G36C G113U U133A  -2.25
55. U9C A37U G63A C80U C82G C85G  -2.21
56. C76G G120U U129A  -1.93
57. G48U C89G  -1.92
58. U7C C85G  -1.66
59. U7G U116G  -1.53
60. A111C U112A  -1.52
61. A5G G10U G42U  -1.51
62. U9A G48U A50U G60A C86G  -1.49
63. C8G C40A C72A C98U G127C  -1.39
64. C49G G52A C53U A84G C85U C94U  -1.34
65. C3U C49U  -1.18
66. C76G C88G  -1.08
67. A6U G36U  -1.07
68. C11A G77A A84U G122A  -1.06
69. C3U C56U  -0.891
70. A2G C13U G69C  -0.807
71. U87C G113A  -0.807
72. G120A G128U  -0.62
73. U78A G93C  -0.506
74. C13U U78C C80U  -0.408
75. G48A A50C A84G  -0.336
76. C40U G57U  -0.292
77. C56A G77C  -0.0761
78. A100C A121C  0.337
79. G39U G61U  0.39
80. A46U A74U A119G  0.444
81. U112C G120C  0.72
82. C56A U78C G93A C123U  1.38
83. G60C A121U  1.85
